From publication PMC2175253

Legend:
Experiment in all cases: two-hybrid
[1] = biological target: nectin-2α cytoplasmic region (pBTM116-HA-nectin-2α-CP) (mouse)
[2] = biological target: α-catenin COOH-terminal half (pBTM116-HA-α-catenin-C) (mouse) (UniProt P26231)
[3] = biological target: α-catenin, full-length (pBTM116-HA-α-catenin) (mouse) (UniProt P26231)

Sequence of nectin-2α cytoplasmic region (pBTM116-HA-nectin-2α-CP) (mouse) (P32507 387-467): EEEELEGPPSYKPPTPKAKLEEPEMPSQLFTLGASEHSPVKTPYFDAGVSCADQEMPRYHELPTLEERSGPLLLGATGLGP

Q: Which results are given for “l-afadin (pGAD424-HA-l-afadin), full-length, HA-tagged and fused with the GAL4 activation domain (from UniProt O35889-1 1-1829) (natural protein)”?
A: β-galactosidase activity (units of β-galactosidase activity) [1]: 41; β-galactosidase activity (units of β-galactosidase activity) [2]: 30; β-galactosidase activity (units of β-galactosidase activity) [3]: < 1
